# Bridge positions count the residues as written; N and C are the ends. Square brackets hold non-standard residues; d marks the D form. Ends that are not written are not given here. Peptide text beside a SMILES is read from it. pGlu = O=C1CC[C@@H](C(=O)O)N1
# B1: KFLIVKS (peptide)
# peptide: KFLIVKS
# notes: Analog of EFLIVKS with the N-terminal glu replaced by lys
# B2: EFLIVK-amide (peptide)
# peptide: EFLIVK-NH2
# notes: Truncated by-product of the EFLIVKS-amide synthesis; also called peak 5
# B3: VSIKFEL (peptide)
# peptide: VSIKFEL
# notes: Peptide designed to form a short beta sheet
# B4: SKVILFE (peptide)
# peptide: SKVILFE-NH2
# notes: also called SKVILFE-amide; test peptide SKVILFE
# Columns and labels:
# [1] = biological target: T1, porcine pancreatic elastase (Sus scrofa, UniProt P00772); assay: Inhibition of porcine pancreatic elastase (succinyl-ala-ala-ala-p-nitroanilide cleavage); assay type: biochemical; conditions: pH 7.88, 25 C
# T1 construct: purchased Sigma Chemical Co., St. Louis, Mo
# Protocol: Inhibition by different peptide constructs was followed by preincubation of 10 μM peptide with elastase for 1-1.5 min. followed by addition of the substrate. Percent inhibition was calculated as [1−{assay slope(peptide+elastase)/assay slope(elastase alone)}]×100%.
# [2] = biological target: T1, porcine pancreatic elastase; conditions: Leatherbarrow and Salacinski; read-out: reported apparent inhibition constant (Ki) for elastase; cited from earlier work
# [3] = Observation of peptide dimers by electrospray MS / LC-MS under harsh conditions; assay type: binding; conditions: electrospray ion trap, infusion at pH 6.4 or C18 elution at ~pH 2.5 in acetonitrile
# Text: The peptide also forms dimers (also detected by mass spectrometry) when eluted off a C18 reversed phase column at pH ˜2.5 in ca. 25% acetonitrile (FIG. 3B).
# LC/MS examination of the crude synthesis products from an all-single coupled fmoc synthesis of EFLIVKS-amide, for shorter sequences which can dimerize after electrospray ionization is shown in FIG. 4. HPLC elution was with a gradient of 99.9% water-0.1% TFA to 99.9% acetonitrile-0.1% TFA. Dimers of the following truncated sequences were detected by mass spectrometry with the percent acetonitrile in parentheses, all at ˜pH 2.5: peak 1, […] (23.5%), monomer m/z=705.3, dimer m/z=1409.3; peak 4: EFLIVKS-amide (25%), monomer m/z=834.4, dimer m/z=1667.3; and peak 5, EFLIVK-amide (32%), monomer m/z=747.4, dimer m/z=1493.1.
# [4] = Solubility of peptide constructs; assay type: physicochemical
# [5] = cited from earlier work; for concentration at which dimers form / do not dissociate: aqueous solution, physiological conditions; for dimer formation of HA fragments: compared with HA
# [6] = biological target: porcine pancreatic elastase (porcine, UniProt P00772 27-266); assay: cell-based or functional assay
# [7] = biological target: the molecule itself; assay: self-dimerization, electrospray mass spectrometry, relative dimer ion current against peptide concentration, pH 5.0
# [8] = biological target: the molecule itself; assay: self-dimerization, electrospray mass spectrometry, alanine scan
# [9] = biological target: the molecule itself; assay: LC/MS, C18 reversed phase elution at ~pH 2.5, electrospray
# T1 sequence (P00772 27-266): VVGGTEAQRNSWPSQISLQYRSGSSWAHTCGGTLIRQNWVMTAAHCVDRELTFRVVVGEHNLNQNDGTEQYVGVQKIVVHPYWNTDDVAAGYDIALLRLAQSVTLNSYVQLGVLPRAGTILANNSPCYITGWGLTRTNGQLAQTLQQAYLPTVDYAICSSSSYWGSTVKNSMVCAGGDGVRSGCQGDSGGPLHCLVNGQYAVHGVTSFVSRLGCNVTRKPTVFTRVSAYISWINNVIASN
# Sequence of porcine pancreatic elastase (porcine, UniProt P00772 27-266) (P00772 27-266 limits assumed): as the sequence (P00772 27-266) above
molecule,measurement,setting,value
O=S(=O)(F)Cc1ccccc1 [PMSF],inhibition of porcine pancreatic elastase,[1]; 2 mM PMSF,100%
CC[C@H](C)[C@@H]1NC(=O)[C@H](CCCNC(=N)N)NC(=O)[C@H](Cc2ccc(O)cc2)NC(=O)[C@H](CCC(=O)O)NC(=O)[C@H](CCSC)NC(=O)[C@H]([C@@H](C)O)NC(=O)[C@H](C(C)C)NC(=O)[C@H]([C@@H](C)CC)NC(=O)[C@H]([C@@H](C)O)NC(=O)CNC(=O)[C@@H](N)CSSC[C@@H](C(=O)O)NC(=O)[C@H](Cc2ccccc2)NC(=O)[C@H](CO)NC(=O)[C@H](CCCNC(=N)N)NC(=O)[C@H]([C@@H](C)O)NC(=O)[C@H](CCCNC(=N)N)NC(=O)[C@H](CC(=O)O)NC1=O [cyclic[CGTIVTMEYRIDRTRSFC]] (H-CGTIVTMEYRIDRTRSFC-OH; disulfide 1-18),Ki,[2],0.00039 µM
same,inhibition of porcine pancreatic elastase,"[1]; 500 nM peptide, 100 μM succ-ala-ala-ala-p-nitroanilide",6.2%
EFLIVK-amide (EFLIVK-NH2),dimer detected by mass spectrometry,[3],Dimers
EFLIVKS,dimer detected by mass spectrometry,[3]; listed as EFLIVKS-amide,self-associate to form dimers
EFLIVKSSTKSIPPQSEFLIVKS [EFLIVKS-STKSIPPQS-EFLIVKS],solubility,[4],quite soluble at low pH
LIVKS-amide,dimer detected by mass spectrometry,[3],Dimers
SKVILFE,concentration at which dimers form / do not dissociate,[5],~10^−13 M
VSIKFEL [peptide designed to form a short beta sheet],dimer detected by mass spectrometry,[3],dimeric form of the peptide
[pGlu]PPGGSK,dimer formation of HA fragments,[5],did not lead to dimer formation
[pGlu]PPGGSKVILF [HA],concentration at which dimers form / do not dissociate,[5],≤ 10^−13 M
pSKVILF,dimer formation of HA fragments,[5],dimerized more efficiently
pVILF,dimer formation of HA fragments,[5],did not lead to dimer formation
CGTIVTMEYRIDRTRSFC (disulfide 1-18) [cyclic[CGTIVTMEYRIDRTRSFC]],inhibition (% inhibition of elastase cleavage of succ-ala-ala-ala-p-nitroanilide),[6],6.2%
EFLIVKS-NH2 (also called EFLIVKS-amide; dimerizer),Kd,[7],7.8 µM
EFLIAKS (Alanine scan analog of EFLIVKS (V5A)),Kd,[7],82 µM
same,fold weakening of self-binding against EFLIVKS,[8],10 fold
EFLIVAS (Alanine scan analog of EFLIVKS (K6A)),Kd,[7],> 50 µM
same,fold weakening of self-binding against EFLIVKS,[8],6 fold
EFLIVKA (Alanine scan analog of EFLIVKS (S7A)),Kd,[7],9.9 µM
EALIVKS (Alanine scan analog of EFLIVKS (F2A)),Kd,[7],42 µM
same,fold weakening of self-binding against EFLIVKS,[8],5.4 fold
EFAIVKS (Alanine scan analog of EFLIVKS (L3A)),Kd,[7],76 µM
same,fold weakening of self-binding against EFLIVKS,[8],9.7 fold
EFLAVKS (Alanine scan analog of EFLIVKS (I4A)),Kd,[7],42 µM
same,fold weakening of self-binding against EFLIVKS,[8],5.4 fold
B1,Kd,[7],6.8 µM
B2,binding result,[9],binds
B3,Kd,[7],13 µM
B4,Kd,[7],12 µM
AFLIVKS (Alanine scan analog of EFLIVKS (E1A)),Kd,[7],12 µM

# — patent publication US6709814B1, “Peptides causing formation of compact structures” (Rigel Pharmaceuticals, Inc., priority 1998, dated 2004)
